Source: the supplement of paper PMC7125110
± gives the standard error. For some of these results: Variants at the floor of the assay were thinned out.

B1: glmS ribozyme (parent)
chain: AUAAAAGCGCCAGAACUACAGAAAUGUAGUUGACGAGGAGGAGGUUUAUCGAAUUUUCGGCGGAUGCCUCCAAA

Legend:
Conditions in all cases: with glucosamine-6-phosphate
glucosamine-6-phosphate [1] = variants of: B1; assay: kcat; higher = faster cleavage; RNA array
In short: (§1)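 Barcoded ribozyme variants, transcribed in situ by E. coli RNA polymerase on sequenced MiSeq chips, were followed via a hybridised Cy3 probe at 37 °C. Glucosamine-6-phosphate ranged from 40 μM to 10 mM in HEPES/KCl/Mg(OAc)2 buffer. kobs came from decay fits to per-tile medians, and kcat and KM from weighted Michaelis–Menten fits.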

glucosamine-6-phosphate [2] = variants of: B1; assay: KM; higher = weaker cofactor use; RNA array
In short: as §1

glucosamine-6-phosphate [3] = variants of: B1; assay: self-cleavage kobs at 40 uM GlcN6P; higher = faster cleavage; RNA array
In short: as §1

glucosamine-6-phosphate [4] = variants of: B1; assay: self-cleavage kobs at 160 uM GlcN6P; higher = faster cleavage; RNA array
In short: as §1

glucosamine-6-phosphate [5] = variants of: B1; assay: self-cleavage kobs at 640 uM GlcN6P; higher = faster cleavage; RNA array
In short: as §1

glucosamine-6-phosphate [6] = variants of: B1; assay: self-cleavage kobs at 2500 uM GlcN6P; higher = faster cleavage; RNA array
In short: as §1

glucosamine-6-phosphate [7] = variants of: B1; assay: self-cleavage kobs at 10000 uM GlcN6P; higher = faster cleavage; RNA array
In short: as §1

Row | Variant | kcat (glucosamine-6-phosphate [1]) [s⁻¹] | KM (glucosamine-6-phosphate [2]) [µM] | self-cleavage kobs at 40 uM GlcN6P (glucosamine-6-phosphate [3]) [s⁻¹] | self-cleavage kobs at 160 uM GlcN6P (glucosamine-6-phosphate [4]) [s⁻¹] | self-cleavage kobs at 640 uM GlcN6P (glucosamine-6-phosphate [5]) [s⁻¹] | self-cleavage kobs at 2500 uM GlcN6P (glucosamine-6-phosphate [6]) [s⁻¹] | self-cleavage kobs at 10000 uM GlcN6P (glucosamine-6-phosphate [7]) [s⁻¹]
1 | U65G G66A | 0.00234 ± 0.0003 | 2300 ± 450 | 4.28e-05 ± 9.4e-06 | 0.000131 ± 2.3e-05 | 0.000612 ± 0.0001 | 0.0013 ± 0.0002 | 0.00183 ± 0.00025
2 | G37C G59U | 1.65e-05 ± 6.9e-06 | – | – | – | – | – | –
3 | G44C U54C | 0.000264 ± 8.4e-05 | – | – | – | – | 0.000133 ± 2.4e-05 | 0.000179 ± 3e-05
4 | A42G C68A | 1.2e-05 ± 4.3e-06 | – | – | – | – | – | –
5 | U54A G66C | 0.000876 ± 0.00013 | 1230 ± 390 | – | 0.00012 ± 2.7e-05 | 0.000259 ± 6.7e-05 | 0.000758 ± 0.00014 | 0.000737 ± 0.0001
6 | G43A | 9.3e-05 ± 6.9e-06 | 1560 ± 420 | – | – | 2.21e-05 ± 1.7e-06 | 6.37e-05 ± 1.8e-06 | 7.88e-05 ± 1.4e-06
7 | A52U U56G | 0.000175 ± 4.1e-05 | 5090 ± 2000 | – | – | 2.83e-05 ± 1.1e-05 | 5.36e-05 ± 9.7e-06 | 0.000122 ± 2.5e-05
8 | C16A A48U | < 1e-05 | 163 ± 44 | < 1e-05 | < 1e-05 | – | – | –
9 | A39C C70A | < 1e-05 | – | < 1e-05 | – | < 1e-05 | – | –
10 | G41A A42G | 0.000223 ± 4.2e-05 | – | – | – | 8.45e-05 ± 1.3e-05 | 0.000296 ± 4.3e-05 | 0.000192 ± 1.8e-05
11 | A15G C61U | 1.94e-05 ± 1e-06 | 631 ± 280 | – | – | – | – | –
12 | C50A A52C | < 1e-05 | 2730 ± 690 | < 1e-05 | < 1e-05 | < 1e-05 | – | –
13 | U54C C61U | 2.59e-05 ± 2.6e-06 | – | – | – | – | – | –
14 | C11U A14U C16G | 0.000375 ± 7.9e-05 | – | – | – | – | 6.42e-05 ± 2.5e-05 | 0.000164 ± 3.4e-05
15 | A12U A15C | 0.00683 ± 0.003 | – | 0.000955 ± 0.00021 | – | 0.0109 ± 0.0048 | 0.00385 ± 0.0017 | 0.0117 ± 0.0029
16 | C10U C67A | 1.13e-05 ± 2.7e-06 | – | – | – | – | – | –
17 | A39G U45G | 0.0109 ± 0.0044 | – | 0.00047 ± 6.3e-05 | 0.00207 ± 0.00047 | 0.00416 ± 0.00099 | 0.00467 ± 0.0013 | 0.0173 ± 0.0023
18 | G29A U30G | 0.00554 ± 0.0022 | – | 0.000159 ± 2.5e-05 | 0.000288 ± 5.9e-05 | 0.00125 ± 0.00029 | 0.0021 ± 0.00068 | 0.00513 ± 0.00085

Row | Variant | kcat (glucosamine-6-phosphate [1]) [s⁻¹] | KM (glucosamine-6-phosphate [2]) [µM] | self-cleavage kobs at 40 uM GlcN6P (glucosamine-6-phosphate [3]) [s⁻¹] | self-cleavage kobs at 160 uM GlcN6P (glucosamine-6-phosphate [4]) [s⁻¹] | self-cleavage kobs at 640 uM GlcN6P (glucosamine-6-phosphate [5]) [s⁻¹] | self-cleavage kobs at 2500 uM GlcN6P (glucosamine-6-phosphate [6]) [s⁻¹] | self-cleavage kobs at 10000 uM GlcN6P (glucosamine-6-phosphate [7]) [s⁻¹]
19 | U46G U69A | 0.000212 ± 5.4e-05 | – | 6.14e-05 ± 1.9e-05 | 9.88e-05 ± 1.7e-05 | 0.000212 ± 4.2e-05 | 0.000306 ± 4.6e-05 | 0.000143 ± 3.6e-05
20 | C11U C58A | 5.6e-05 ± 2e-06 | 753 ± 170 | – | – | – | 4.48e-05 ± 1.1e-05 | 5.15e-05 ± 8.2e-06
21 | A39G C58U | 7.06e-05 ± 1.1e-06 | 2990 ± 150 | < 1e-05 | – | – | 3.24e-05 ± 1.1e-05 | 5.43e-05 ± 8.5e-06
22 | A6G U31C | 6.74e-05 ± 1.3e-05 | – | – | – | – | 5.13e-05 ± 7.6e-06 | 5.58e-05 ± 7.5e-06
23 | G37A U65A | 0.000179 ± 2.2e-05 | 4340 ± 1300 | – | – | – | 7.66e-05 ± 1.9e-05 | 0.000124 ± 1.4e-05
24 | A12U U65G | 0.00705 ± 0.00071 | 4650 ± 730 | 5.57e-05 ± 9.8e-06 | 0.000303 ± 6.4e-05 | 0.000829 ± 0.00018 | 0.00239 ± 0.00046 | 0.00483 ± 0.00044
25 | A14U G44U | 7.47e-05 ± 1.1e-05 | 3310 ± 1300 | < 1e-05 | – | – | 3.42e-05 ± 8.1e-06 | 5.55e-05 ± 8.3e-06
26 | A39G U56C | 0.00799 ± 0.002 | 3240 ± 1100 | 0.000109 ± 1.2e-05 | 0.000656 ± 0.00018 | 0.00106 ± 0.00014 | 0.0039 ± 0.00058 | 0.00611 ± 0.00076
27 | U31A G44A | 0.00023 ± 5.7e-05 | 4780 ± 2400 | – | – | – | 9.2e-05 ± 1.5e-05 | 0.000151 ± 2.1e-05
28 | A15C U55G C70A | 4.71e-05 ± 9.2e-06 | – | – | – | 5.4e-05 ± 1.4e-05 | 4.46e-05 ± 1.3e-05 | 3.54e-05 ± 1.7e-05
29 | G29C C61A | 1.76e-05 ± 3.3e-06 | – | < 1e-05 | – | – | – | –
30 | A53G A64G | 0.0648 ± 0.023 | 2430 ± 1000 | 0.00117 ± 0.00012 | 0.00264 ± 0.00067 | 0.0149 ± 0.0022 | 0.0373 ± 0.01 | 0.0493 ± 0.012
31 | C16U U56C | 0.00495 ± 0.00037 | 4050 ± 460 | 4.49e-05 ± 7.9e-06 | 0.00024 ± 8.3e-05 | 0.000693 ± 0.00011 | 0.00199 ± 0.00037 | 0.00349 ± 0.00036
32 | C10A A14C C71A | 2.17e-05 ± 9.3e-06 | – | – | – | – | – | –
33 | A12G U47A | 0.00138 ± 0.00029 | 5500 ± 1600 | – | – | 0.000152 ± 1.9e-05 | 0.000455 ± 7.1e-05 | 0.000864 ± 0.00013
34 | G13A G40A | 0.000179 ± 1.9e-05 | 6100 ± 1200 | – | – | – | 5.48e-05 ± 1.2e-05 | 0.00011 ± 1.8e-05
35 | C11U C71G | 0.000109 ± 9.1e-06 | 408 ± 150 | – | – | 7.07e-05 ± 1.2e-05 | 8.38e-05 ± 1.2e-05 | 0.000111 ± 1.2e-05
